For three molecules, Kd results are on record in article PMC6224377 (2018).

Numbering of substitutions follows the chain as printed.

Sequences and labels used below:
B1: GK-5E1 (antibody, V domains shown)
VH: QVTLKESGGDVVQPGRSLRLSCAASGFTFRTYGMHWVRQAPGKGPEWVALIWYDGSKKYYADSVKGRFTISRDNSKNTLYLQMNSLRAEDTAVYYCVRVRFGELYFQHWGQGTLVTVSS
VL: not shown
B2: GK-1E5 (antibody, V domains shown)
VH: EVQLVESGGGVVQPGRSLRLSCAASGFTFRSYGMHWVRQAPGKGLEWVAIIWYDGSKKYYTDSVQGRFTISRDNSKNTLYLQMNSLRAEDTAVYYCARPGIAMTGLDYWGQGTLVTVSS
VL: DIQLTQSPSTLSASVGDRVTITCRASQSISSWLAWYQQKPGKAPKLLIYKASSLESGVPSRFSGSGSGTEFTLTISSLQPDDFATYYCQQYNNYWTFGQGTKVEIK
B3: GK-5A1 (antibody, V domains shown)
VH: QVQLVESGGGVVQPGRSLRLSCAASGFTFSSYGMYWVRQAPGKGLEWVAVIWNDGSNKYYADSVKGRFTISRDNSKNTLYLQMNSLRAEDTAVYYCAREGSGWYDYYYGMDVWGQGTTVTVSS
VL: B2 VL with D1E, Q3V, N93S, E104D

Chain of hROR2-ECD-Twin-Strep (soluble human ROR2 extracellular domain fused to a Twin-Strep-tag) (Q01974 34-403): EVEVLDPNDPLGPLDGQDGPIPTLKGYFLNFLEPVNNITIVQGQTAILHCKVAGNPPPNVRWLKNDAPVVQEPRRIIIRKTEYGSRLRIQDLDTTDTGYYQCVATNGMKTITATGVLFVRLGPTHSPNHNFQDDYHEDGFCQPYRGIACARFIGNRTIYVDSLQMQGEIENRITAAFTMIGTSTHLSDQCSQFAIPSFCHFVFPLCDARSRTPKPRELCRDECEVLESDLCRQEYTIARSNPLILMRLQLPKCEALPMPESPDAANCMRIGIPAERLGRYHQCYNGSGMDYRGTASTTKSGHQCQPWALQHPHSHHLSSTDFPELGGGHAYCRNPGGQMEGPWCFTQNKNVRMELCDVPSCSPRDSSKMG

This experiment has as its target hROR2-ECD-Twin-Strep (soluble human ROR2 extracellular domain fused to a Twin-Strep-tag) (human, UniProt Q01974 34-403). Kind of experiment: SPR. A general note: Surface plasmon resonance follows binding to a sensor surface in real time, without labels.
As usually defined, the Kd is the equilibrium constant for the complex coming apart. Read a low Kd as a tighter complex. Regarding B1, the Kd was found to be 2.5 nM.

Turning to B2, the Kd amounted to 80.7 nM.

Turning to B3, the Kd was 61.3 nM.
